Experimental data published in patent publication EP4471049A1 (Zealand Pharma A/S, priority 2023, dated 2024).
*1 amine or outer side, *2 acyl side, *3 side chain or, on linkers, in order; H or OH if unused. Where a SMILES comes first, the peptide text is derived from it. Bridges are numbered along the chain shown (N, C = ends). Where no end group is shown, it is not given here. [ ]: non-standard residue; d: D form. 4‑Aminomethyl‑phenylacetyl = 4-aminomethyl-phenylacetyl unit, its amine closes the lactam, O=C(Cc1ccc(CN[*:1])cc1)[*:2]; 2Nal = N[C@@H](Cc1ccc2ccccc2c1)C(=O)O; AEF = NCCOc1ccc(C[C@H](N)C(=O)O)cc1; 3Pal = N[C@@H](Cc1cccnc1)C(=O)O; αMeL = CC(C)C[C@](C)(N)C(=O)O; CH2COCH2 = O=C(C[*:1])C[*:2]; 3Amb = NCc1cccc(C(=O)O)c1; NMeS = CN[C@@H](CO)C(=O)O; Dab = NCC[C@H](N)C(=O)O

T1: human IL-23R endogenously expressed on DB cells (human, UniProt Q5VWK5 24-629)
T1 sequence (looked up): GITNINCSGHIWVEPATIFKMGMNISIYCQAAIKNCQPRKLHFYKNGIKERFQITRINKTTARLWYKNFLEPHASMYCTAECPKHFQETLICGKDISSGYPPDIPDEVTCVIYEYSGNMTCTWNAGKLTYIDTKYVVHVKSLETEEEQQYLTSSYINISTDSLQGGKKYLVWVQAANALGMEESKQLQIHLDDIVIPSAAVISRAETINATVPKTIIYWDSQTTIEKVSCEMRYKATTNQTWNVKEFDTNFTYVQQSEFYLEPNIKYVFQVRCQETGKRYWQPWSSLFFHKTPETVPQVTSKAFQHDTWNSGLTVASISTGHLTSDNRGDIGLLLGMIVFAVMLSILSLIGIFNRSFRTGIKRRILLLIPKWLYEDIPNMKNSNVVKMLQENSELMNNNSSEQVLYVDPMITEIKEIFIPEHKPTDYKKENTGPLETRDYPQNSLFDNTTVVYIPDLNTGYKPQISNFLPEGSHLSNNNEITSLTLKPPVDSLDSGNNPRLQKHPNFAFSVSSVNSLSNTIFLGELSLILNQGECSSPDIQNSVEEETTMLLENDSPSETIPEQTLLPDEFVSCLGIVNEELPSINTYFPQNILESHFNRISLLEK

T2: Nluc-IL23R fusion protein (human, UniProt Q5VWK5 22-629)
T2 construct: range 22-629; expressed with a secretion signal in HEK293 cells; used as crude membrane preparation; also called hIL-23R; human IL-23R; not shown: Nanoluc protein from the expression plasmid N1371 (Promega), N-terminal of IL-23R
T2 sequence (looked up): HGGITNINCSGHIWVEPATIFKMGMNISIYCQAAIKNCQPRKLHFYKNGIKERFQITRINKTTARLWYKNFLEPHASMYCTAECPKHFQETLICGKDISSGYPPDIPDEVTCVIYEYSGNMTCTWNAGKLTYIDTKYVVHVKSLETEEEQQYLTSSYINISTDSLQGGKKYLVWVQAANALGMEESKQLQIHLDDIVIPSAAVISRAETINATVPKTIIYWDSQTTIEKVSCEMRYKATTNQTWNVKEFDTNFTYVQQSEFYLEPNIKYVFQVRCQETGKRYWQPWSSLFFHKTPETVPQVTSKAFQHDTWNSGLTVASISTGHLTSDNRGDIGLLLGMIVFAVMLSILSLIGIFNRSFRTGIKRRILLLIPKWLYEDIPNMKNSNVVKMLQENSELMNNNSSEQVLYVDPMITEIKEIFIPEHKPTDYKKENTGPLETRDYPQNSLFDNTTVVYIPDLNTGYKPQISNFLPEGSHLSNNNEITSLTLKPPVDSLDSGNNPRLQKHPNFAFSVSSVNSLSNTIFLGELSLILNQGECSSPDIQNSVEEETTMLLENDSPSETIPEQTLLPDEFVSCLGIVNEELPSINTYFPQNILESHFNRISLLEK

B1: Compound 22 (peptide)
peptide: [4‑Aminomethyl‑phenylacetyl]SEWA[Dab][AEF][2Nal][αMeL]E[Dab][3Pal]-NHMe
modifications: lactam N-10, 3-6
SMILES: CNC(=O)[C@H](Cc1cccnc1)NC(=O)[C@H](CCN)NC(=O)[C@@H]1CCC(=O)NCc2ccc(cc2)CC(=O)N[C@@H](CO)C(=O)N[C@H]2CCC(=O)NCC[C@H](NC(=O)[C@H](C)NC(=O)[C@H](Cc3c[nH]c4ccccc34)NC2=O)C(=O)N[C@@H](Cc2ccc(OCCN)cc2)C(=O)N[C@@H](Cc2ccc3ccccc3c2)C(=O)N[C@@](C)(CC(C)C)C(=O)N1
B2: Compound 23 (peptide)
peptide: [4‑Aminomethyl‑phenylacetyl]SEWF[Dab][AEF][2Nal][αMeL]E[Dab][3Pal]-NHMe
modifications: lactam N-10, 3-6
SMILES: CNC(=O)[C@H](Cc1cccnc1)NC(=O)[C@H](CCN)NC(=O)[C@@H]1CCC(=O)NCc2ccc(cc2)CC(=O)N[C@@H](CO)C(=O)N[C@H]2CCC(=O)NCC[C@H](NC(=O)[C@H](Cc3ccccc3)NC(=O)[C@H](Cc3c[nH]c4ccccc34)NC2=O)C(=O)N[C@@H](Cc2ccc(OCCN)cc2)C(=O)N[C@@H](Cc2ccc3ccccc3c2)C(=O)N[C@@](C)(CC(C)C)C(=O)N1
B3: Ref 78 (peptide)
peptide: [3Amb]SCWQC[AEF][2Nal][αMeL]ER[3Pal]-NH2
modifications: lactam N-10; bridge 3-6; not fully specified (bridges); printed as [(3-Aminomethyl)benzoyl](1c)*SC(2a)WQC(2a)[Y(2-aminoethoxy)][2-Nal][2-Me-Leu]E(1c)R[3-(3-Pyridyl)-Ala]-[NH2]
B4: Ref 82 (peptide)
peptide: [4‑Aminomethyl‑phenylacetyl]SCWQC[AEF][2Nal][αMeL]E[Dab]-NH2
modifications: lactam N-10; bridge 3-6; not fully specified (bridges); printed as [4-Aminomethyl-phenylacetyl](1c)*SC(2a)WQC(2a)[Y(2-aminoethoxy)][2-Nal][2-Me-Leu]E(1c)[Dab]-[NH2]
B5: Ref 120 (peptide)
peptide: [4‑Aminomethyl‑phenylacetyl]SCWQC[AEF][2Nal][αMeL]E[Dab][3Pal]-NH2
modifications: lactam N-10; bridge 3-6; not fully specified (bridges); printed as [4-Aminomethyl-phenylacetyl](1c)*SC(2a)WQC(2a)[Y(2-aminoethoxy)][2-Nal][2-Me-Leu]E(1c)[Dab][3-(3-Pyridyl)-Ala]-[NH2]
B6: Ref 155 (peptide)
peptide: Ac-KTCWQC[AEF][2Nal][αMeL]E[Dab][3Pal]-NH2
modifications: lactam 1-10; bridge 3-6; not fully specified (bridges); printed as [Ac]-K(1c)TC(2a)WQC(2a)[Y(2-aminoethoxy)][2-Nal][2-Me-Leu]E(1c)[Dab][3-(3-Pyridyl)-Ala]-[NH2]
B7: Compound 21 (peptide)
peptide: [4‑Aminomethyl‑phenylacetyl]FEWQ[Dab][AEF][2Nal][αMeL]E[Dab][3Pal]-NHMe
modifications: lactam N-10, 3-6
SMILES: CNC(=O)[C@H](Cc1cccnc1)NC(=O)[C@H](CCN)NC(=O)[C@@H]1CCC(=O)NCc2ccc(cc2)CC(=O)N[C@@H](Cc2ccccc2)C(=O)N[C@H]2CCC(=O)NCC[C@H](NC(=O)[C@H](CCC(N)=O)NC(=O)[C@H](Cc3c[nH]c4ccccc34)NC2=O)C(=O)N[C@@H](Cc2ccc(OCCN)cc2)C(=O)N[C@@H](Cc2ccc3ccccc3c2)C(=O)N[C@@](C)(CC(C)C)C(=O)N1

How the values were obtained:
[1] = Peptide stability in simulated gastric fluid (SGF); assay type: in vitro ADME; settings: 37 °C, pH 1.2, porcine pepsin 3.2 g/L, 10 µM
Protocol: SGF was prepared by dissolving sodium chloride (0.2 g) in 50 mL of water. A volume of 0.7 mL of 10 M HCl was added to adjust the pH of the solution to 1.2 and the volume made up to 100 mL with water. […] SIF was prepared by dissolving monobasic potassium phosphate (0.68 g) in 50 mL of water and adjusting the pH to 6.8 with 1 M NaOH. The volume was subsequently made up to 100 mL with water. 200 mg porcine pancreatin (P1625, Sigma Aldrich) was gently dissolved into 20 mL preheated (37 °C) solution (10 g/L) immediately prior to the incubation.
The incubation was performed at 37 °C with gentle shaking. […] After the last timepoint, the sampling plate was mixed for 10 min on a shaking table and centrifuged 10 min at 2200 g. 70 µL resulting supernatant was diluted with 150 µL water, mixed and centrifugated before analysis by liquid chromatography high resolution mass spectrometry. […] Percent remaining at each timepoint was calculated relative to timepoint zero based on absolute peak areas.
Compounds with a SGF stability (after 4 h) above 70% are considered highly SGF stable. […] Table 3-4: SGF data

[2] = molecular target: T1, human IL-23R endogenously expressed on …; test: cell-based or functional assay
[3] = molecular target: T2, Nluc-IL23R fusion protein; test: BRET competition vs TAMRA-labelled peptide, Nluc-IL23R membranes

Molecule	SGF (% remaining 1 h) [1] [%]	SGF (% remaining 4 h) [1] [%]	hIL-23 (pSTAT3) antagonist % inhibition [2] [%]	hIL-23 (pSTAT3) antagonist IC50 [2] [nM]	% displacement (hIL-23R binding) [3] [%]	IC50 [3] [nM]
CC(C)C[C@@H]1NC(=O)[C@H](Cc2c[nH]c3ccccc23)NC(=O)[C@H](Cc2c[nH]c3ccccc23)NC(=O)[C@@H]2CSCC(=O)CSC[C@H](NC(=O)[C@H](CO)NC(=O)[C@@H](NC(=O)[C@@H](N)CC(=O)O)CCC(=O)NCCCC[C@@H](C(=O)N[C@@H](CCCNC(=N)N)C(N)=O)NC1=O)C(=O)N[C@@H](Cc1c[nH]c3ccccc13)C(=O)N[C@@H](CCC(N)=O)C(=O)N2 [Ref 4, H-DE(1c)SC(2a)WQC(2a)WWLK(1c)R-[NH2], reference compound] (HELM PEPTIDE1{D.E.S.C.W.Q.C.W.W.L.K.R.[am]}|CHEM1{[O=C(C[*:1])C[*:2]]}$PEPTIDE1,PEPTIDE1,2:R3-11:R3|PEPTIDE1,CHEM1,4:R3-1:R1|PEPTIDE1,CHEM1,7:R3-1:R2$$$V2.0)	1	0				
CC(=O)N[C@@H](CC(=O)O)C(=O)N[C@H]1CCC(=O)NCCCC[C@@H](C(=O)N[C@@H](CCCNC(=N)N)C(N)=O)NC(=O)[C@H](CC(C)C)NC(=O)[C@H](Cc2ccc3ccccc3c2)NC(=O)[C@H](Cc2c[nH]c3ccccc23)NC(=O)[C@@H]2CSCC(=O)CSC[C@H](NC(=O)[C@H](CO)NC1=O)C(=O)N[C@@H](Cc1c[nH]c3ccccc13)C(=O)N[C@@H](CCC(N)=O)C(=O)N2 [Ref 17, [Ac]-DE(1c)SC(2a)WQC(2a)W[2-Nal]LK(1c)R-[NH2], reference compound]	0	0				
CC(C)C[C@@H]1NC(=O)[C@H](Cc2ccc3ccccc3c2)NC(=O)[C@H](Cc2c[nH]c3ccccc23)NC(=O)[C@@H]2CSCC(=O)CSC[C@H](NC(=O)[C@H](CO)NC(=O)c3cccc(c3)CNC(=O)CC[C@@H](C(=O)N[C@@H](CCCNC(=N)N)C(N)=O)NC1=O)C(=O)N[C@@H](Cc1c[nH]c3ccccc13)C(=O)N[C@@H](CCC(N)=O)C(=O)N2 [Ref 37, [(3-Aminomethyl)benzoyl](1c)*SC(2a)WQC(2a)W[2-Nal]LE(1c)R-[NH2], reference compound] ([3Amb]SCWQCW[2Nal]LER-NH2; linker 3-6 via CH2COCH2; lactam N-10)	2	1				
B1			101	3.4	96	0.035
B2			99	5.2	97	0.12
B3			100	0.13	100	
B4			97	11	103	
B5			101	0.054	94	
B6			100	0.031	97	
[4‑Aminomethyl‑phenylacetyl]SEWQ[Dab][AEF][2Nal][αMeL]E[Dab]H[3Pal]-NH2 (lactam (positions not given here); lactam 3-6; not fully specified (bridges)) [Compound 12]			100	3.5	104	
[4‑Aminomethyl‑phenylacetyl][NMeS]EWQ[Dab][AEF][2Nal][αMeL]E[Dab][3Pal]-NHMe (lactam (positions not given here); lactam 3-6; not fully specified (bridges)) [Compound 18]					96	
B7			102	0.063	95	
